Consider four molecules from US20090324614A1 (published 2009).

The target of experiment [1] is T1, soluble human FcRn (shFcRn) (human, UniProt P55899 24-297; P61769 21-119).
T1 construct: also called soluble hFcRn; sol hFcRn
The experiment in a line: Biacore, IgG immobilized, hFcRn flowed, pH 6.

Experiment [2] concerns the target T1, soluble human FcRn (shFcRn). Nature of the experiment: SPR 8500, hFcRn pH 7.4 (Table 12C).
In experiment [3] the target is T2, human FcRn/human β2M expressed by cells (293 C11 cells) (human, UniProt P55899 24-365; P61769 21-119).
T2 construct: HEK 293 cells engineered to overexpress FcRn; Whole entries named; also called hFcRn (cells); hFcRn in THP-1 and Caco-2 cells
T2 sequence (P55899 24-365 limits assumed, chain 1 of 2): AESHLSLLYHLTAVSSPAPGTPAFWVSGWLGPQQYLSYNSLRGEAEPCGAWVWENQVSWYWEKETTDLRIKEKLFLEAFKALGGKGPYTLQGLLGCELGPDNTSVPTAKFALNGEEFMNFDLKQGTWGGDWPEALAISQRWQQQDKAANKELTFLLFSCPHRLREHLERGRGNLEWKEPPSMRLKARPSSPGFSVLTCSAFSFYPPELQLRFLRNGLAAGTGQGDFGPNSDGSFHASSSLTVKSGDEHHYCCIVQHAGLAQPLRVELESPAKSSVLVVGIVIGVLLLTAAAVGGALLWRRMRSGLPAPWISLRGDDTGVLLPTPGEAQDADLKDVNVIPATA
T2 sequence (P61769 21-119 limits assumed, chain 2 of 2): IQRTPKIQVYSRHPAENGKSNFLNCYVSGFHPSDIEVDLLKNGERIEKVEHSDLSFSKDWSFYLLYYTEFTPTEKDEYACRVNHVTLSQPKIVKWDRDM
The experiment in a line: FACS (blocking), IgG, hFcRn cells, pH 6.

Experiment [4] addresses T1, soluble human FcRn (shFcRn). The experiment in a line: SPR 8500, hFcRn pH 6 (Table 12B).
For experiment [5] the target is unchanged. The experiment in a line: Biacore, IgG immobilized, hFcRn flowed, pH 7.4. For orientation: Surface plasmon resonance follows binding to a sensor surface in real time, without labels.
The target is the same in experiment [6]. The experiment in a line: Biacore, pH 7.4.
Experiment [7] has the same target. The experiment in a line: Biacore, hFcRn immobilized, IgG flowed, pH 7.4.
Experiment [8] shares this target. Nature of the experiment: SPR 8500, IgG, pH 7.5.
Experiment [9] addresses T3, soluble rat FcRn (rat, UniProt P13599 23-298; P07151 21-119, limits assumed).
T3 construct: also called sol rat FcRn
T3 sequence: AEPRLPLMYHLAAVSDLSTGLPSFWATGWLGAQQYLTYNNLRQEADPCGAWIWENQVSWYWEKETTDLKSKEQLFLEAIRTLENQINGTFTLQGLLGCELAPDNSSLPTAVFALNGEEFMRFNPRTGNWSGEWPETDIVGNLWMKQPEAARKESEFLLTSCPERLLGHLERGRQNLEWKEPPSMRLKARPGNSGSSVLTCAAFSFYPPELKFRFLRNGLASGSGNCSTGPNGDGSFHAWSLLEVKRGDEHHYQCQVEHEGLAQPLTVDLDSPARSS
T3 sequence (b2m): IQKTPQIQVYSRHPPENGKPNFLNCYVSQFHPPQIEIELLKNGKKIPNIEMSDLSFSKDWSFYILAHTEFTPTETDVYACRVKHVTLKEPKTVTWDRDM
The experiment in a line: SPR 8500, IgG, pH 7.5.

In experiment [10] the target is T4, rat FcRn/rat β2M expressed on cells (rat, UniProt P13599 23-366; P07151 21-119).
T4 construct: Cells from Neil Simister (Brandeis); also called rat FcRn (cells); rat fibroblasts expressing rat FcRn
T4 sequence: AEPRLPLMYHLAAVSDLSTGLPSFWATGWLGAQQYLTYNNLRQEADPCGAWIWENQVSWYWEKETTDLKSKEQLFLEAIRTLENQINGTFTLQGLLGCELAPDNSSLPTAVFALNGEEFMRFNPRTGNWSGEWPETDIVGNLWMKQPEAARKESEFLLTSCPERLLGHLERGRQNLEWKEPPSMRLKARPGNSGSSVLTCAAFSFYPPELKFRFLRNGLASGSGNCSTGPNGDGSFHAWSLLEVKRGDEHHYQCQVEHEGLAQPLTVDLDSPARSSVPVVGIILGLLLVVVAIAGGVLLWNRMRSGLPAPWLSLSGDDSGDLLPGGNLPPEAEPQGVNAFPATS
T4 sequence (b2m): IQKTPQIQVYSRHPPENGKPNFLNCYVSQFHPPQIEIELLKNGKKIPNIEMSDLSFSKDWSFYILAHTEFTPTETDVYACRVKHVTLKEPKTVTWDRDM
Nature of the experiment: FACS blocking of IgG-Fc, IgG, pH 6.

Experiment [11] addresses T2, human FcRn/human β2M expressed by cells …. Nature of the experiment: FACS blocking of IgG-Fc, IgG, pH 6.
Experiment [12] has as its target T3, soluble rat FcRn. Nature of the experiment: SPR 8500, rat FcRn pH 6 (Table 12D).
Experiment [13] addresses T1, soluble human FcRn (shFcRn). The experiment in a line: Biacore, hFcRn immobilized, IgG flowed, pH 6.
The target is the same in experiment [14]. The experiment in a line: SPR 8500, IgG, pH 6.
Experiment [15] deals with T3, soluble rat FcRn. Nature of the experiment: SPR 8500, IgG, pH 6.
The target in experiment [16] is T1, soluble human FcRn (shFcRn). Nature of the experiment: Biacore, IgG immobilized, hFcRn flowed, pH 7.4. The source holds these as a separate data set.
Experiment [17] has as its target T3, soluble rat FcRn. The experiment in a line: SPR 8500, rat FcRn pH 7.4 (Table 12E).
Experiment [18] concerns the target T3, soluble rat FcRn. The experiment in a line: SPR 8500, rat FcRn pH 6 (Table 11D).
Experiment [19] addresses T1, soluble human FcRn (shFcRn). Nature of the experiment: SPR 8500, hFcRn pH 6 (Table 11B).
Experiment [20] shares this target. The experiment in a line: SPR 8500, hFcRn pH 7.4 (Table 11C).

T1 sequence (P55899 24-297 limits assumed, chain 1 of 2): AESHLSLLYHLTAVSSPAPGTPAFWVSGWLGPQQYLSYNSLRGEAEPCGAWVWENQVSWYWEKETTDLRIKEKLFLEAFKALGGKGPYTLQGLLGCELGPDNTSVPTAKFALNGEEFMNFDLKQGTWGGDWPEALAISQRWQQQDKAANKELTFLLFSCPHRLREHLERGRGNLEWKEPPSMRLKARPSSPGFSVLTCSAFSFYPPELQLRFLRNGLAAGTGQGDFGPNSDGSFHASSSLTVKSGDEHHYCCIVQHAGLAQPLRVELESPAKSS
T1 sequence (P61769 21-119 limits assumed, chain 2 of 2): as the sequence (P61769 21-119 limits assumed, chain 2 of 2) above

B1: 532A-M0090-F11 IgG (antibody)
chain 1: not shown
chain 2: QSVLTQPASVSGSPGQSITISCTGTGSDVGSYNLVSWYQKYPGKAPKLIIYGDSQRPSGLSSRFSGSKSGNSASLTISGLQAEDEADYYCCSYAGSGIYVFGSGTKVTVLSQPKANPTVTLFPPSSEELQANKATLVCLISDFYPGAVTVAWKADGSPVKAGVETTKPSKQSNNKYAASSYLSLTPEQWKSHRSYSCQVTHEGSTVEKTVAPAECS
As a reminder, the Kd is the free concentration of one partner at which half of the binding sites on the other are occupied at equilibrium, for simple one-to-one binding. Broadly, the koff is a measure of how fast the partners let go of each other. A lower koff goes with a long-lived complex. In general, kon refers to the second-order rate constant of association. Usually IC50 stands for the midpoint of a concentration-inhibition curve. A higher IC50 goes with weaker potency. Turning to B1, the equilibrium dissociation constant (Kd) in experiment [1] worked out at 10.3 nM; in experiment [2], 10.8 nM; in [4], 2.44 nM; in [5], 18.6 nM; in experiment [7], 0.772 nM; in [8] it was 10.8 nM. In addition, the Kd in experiment [9] came to 9.14 nM; in experiment [12], 9.8 nM; in experiment [13], 0.118 nM; in experiment [14], 2.44 nM; in experiment [15], 9.8 nM; in [16] it was 20.5 nM. This molecule also came in with a Kd in experiment [17] of 9.14 nM. In addition, the koff in [1] turned out to be 0.00312 s⁻¹; in experiment [2], 0.00173 s⁻¹; in [4], 0.00248 s⁻¹; in [5] it was 0.00299 s⁻¹; in [7], 0.000702 s⁻¹; in experiment [12], 0.00117 s⁻¹. The koff in experiment [13] was 0.000252 s⁻¹; in [16] it was 0.00373 s⁻¹; in experiment [17], 0.00114 s⁻¹. In addition, the kon was determined as 303000 M⁻¹ s⁻¹ in experiment [1]; 159000 M⁻¹ s⁻¹ in [2]; 1.02e+06 M⁻¹ s⁻¹ in experiment [4]; 161000 M⁻¹ s⁻¹ in experiment [5]; 909000 M⁻¹ s⁻¹ in experiment [7]; 119000 M⁻¹ s⁻¹ in [12]. In addition, the values for the kon in experiment [13], in [16] and in [17] were 2.13e+06 M⁻¹ s⁻¹, 181000 M⁻¹ s⁻¹ and 125000 M⁻¹ s⁻¹, respectively. Further, the IC50 in [3] turned out to be 0.43 nM; in experiment [10], 4.9 nM; in experiment [11], 2.6 nM. In addition, the “K off Fold improvement over DX2500” value in [6] stood at 7 fold. Also, the “K off Fold improvement over M90-F11” value in [6] came to 1 fold. Also, the “KD Fold improvement over DX2500” value in experiment [6] came to 5 fold. In addition, in [6], the “KD Fold improvement over M90-F11” value was 1 fold.

B2: 532A-M0090-F11 (germlined LC changes) IgG (antibody)
chain 1: not shown
chain 2: QSALTQPASVSGSPGQSITISCTGTGSDVGSYNLVSWYQQHPGKAPKLMIYGDSQRPSGVSNRFSGSKSGNTASLTISGLQAEDEADYYCCSYAGSGIYVFGTGTKVTVLGQPKANPTVTLFPPSSEELQANKATLVCLISDFYPGAVTVAWKADGSPVKAGVETTKPSKQSNNKYAASSYLSLTPEQWKSHRSYSCQVTHEGSTVEKTVAPTECS
B2: the Kd in experiment [1] came to 29.9 nM; in [7], 0.779 nM; in experiment [13], 0.172 nM; in experiment [16] it was 35.2 nM. Besides, the koff came out at 0.0172 s⁻¹ in experiment [1], 0.000776 s⁻¹ in experiment [7], 0.000764 s⁻¹ in [13] and 0.0152 s⁻¹ in experiment [16]. Besides, the kon in experiment [1] was 574000 M⁻¹ s⁻¹; in [7], 996000 M⁻¹ s⁻¹; in experiment [13], 4.45e+06 M⁻¹ s⁻¹; in [16], 433000 M⁻¹ s⁻¹. The molecule also gave a half-inhibitory concentration (IC50) in experiment [3] of 0.38 nM.

B3: DX-2500 (germlined LC & allotype HC changes) (antibody)
chain 1: not shown
chain 2: QSALTQPASVSGSPGQSITISCTGTGSDVGSYNLVSWYQQHPGKAPKLMIYGDSQRPSGVSNRFSGSKSGNTASLTISGLQAEDEADYYCCSYAGSGIYVFGTGTKVTVLGQPKANPTVTLFPPSSEELQANKATLVCLISDFYPGAVTVAWKADGSPVKAGVETTKPSKQSNNKYAASSYLSLTPEQWKSHRSYSCQVTHEGSTVEKTVAPTECS
For B3, in experiment [1], the affinity, expressed as Kd, was 27.6 nM; the koff came to 0.0177 s⁻¹; the kon is 642000 M⁻¹ s⁻¹. Also, the IC50 in [3] amounted to 0.65 nM. In addition, in experiment [5], the dissociation constant (Kd) came to 87.9 nM, the koff came out at 0.0197 s⁻¹ and the kon is 224000 M⁻¹ s⁻¹. Besides, in experiment [6], the “K off Fold improvement over DX2500” value was found to be 1 fold, the “K off Fold improvement over M90-F11” value was determined as 0.15 fold, the “KD Fold improvement over DX2500” value is 1 fold and the “KD Fold improvement over M90-F11” value worked out at 0.21 fold. In [7], this molecule yielded a Kd of 0.268 nM, a koff of 0.000338 s⁻¹ and a kon of 1.26e+06 M⁻¹ s⁻¹. In experiment [13], binding was characterised by a dissociation constant (Kd) of 0.16 nM, the off-rate constant (koff) stood at 0.000336 s⁻¹ and the kon stood at 2.11e+06 M⁻¹ s⁻¹.

B4: 3B3 mouse anti-human FcRn IgG (antibody)
chain 1: VKLQESGPELVKPGASVKISCKASGYAFSRSWMNWVKQRPGQGLEWIGRIHPGDGDTNYNGKFKGKATLTVAKSSSTAYMQLSSLTSVDSAVYFCANEGSPYFDYWGQGTTLTVSS
chain 2: DIQLTQSPTTVAASPGEKITITCSASSSISSNYLHWYQQKPGFSPKLLIYRTSNLASGVPARFSGSGSGTSYSLTIGTMEAEDVATYYCQQGSNIPLTFGAGTKLELKRADAAPTVSIFPPSSEQLTSGGASVVCFLNNFYPKDINVKWKIDGSERQNGVLNSWTDQDSKDSTYSMSSTLTLTKDEYERHNSYTCEATHKTSTSPIVKSFNKNE
For the molecule B4, the Kd in experiment [18] amounted to 1.5 nM; in experiment [19], 0.34 nM; in [2], 0.675 nM; in experiment [4] it was 0.409 nM; in experiment [20] it was 0.593 nM. Moreover, the koff came to 0.00104 s⁻¹ in experiment [18]; 0.00131 s⁻¹ in [19]; 0.0023 s⁻¹ in [2]; 0.00094 s⁻¹ in [4]; 0.00176 s⁻¹ in experiment [20]. Also, the kon in experiment [18] came out at 683000 M⁻¹ s⁻¹; in experiment [19], 3.82e+06 M⁻¹ s⁻¹; in experiment [2] it was 3.41e+06 M⁻¹ s⁻¹; in [4], 2.3e+06 M⁻¹ s⁻¹; in experiment [20], 2.97e+06 M⁻¹ s⁻¹. The molecule also displayed a 50% inhibitory concentration (IC50) in experiment [11] of 9.7 nM.
